{"source": "paper PMC5880071", "about": "“Self-sustained enzymatic cascade for the production of 2,5-furandicarboxylic acid from 5-methoxymethylfurfural” (Biotechnology for Biofuels, 2018)", "molecules": {"B1": {"name": "AAO (aryl-alcohol oxidase) (Pleurotus eryngii) (protein)", "chain": "ADFDYVVVGAGNAGNVVAARLTEDPDVSVLVLEAGVSDENVLGAEAPLLAPGLVPNSIFDWNYTTTAQAGYNGRSIAYPRGRMLGGSSSVHYMVMMRGSTEDFDRYAAVTGDEGWNWDNIQQFVRKNEMVVPPADNHNTSGEFIPAVHGTNGSVSISLPGFPTPLDDRVLATTQEQSEEFFFNPDMGTGHPLGISWSIASVGNGQRSSSSTAYLRPAQSRPNLSVLINAQVTKLVNSGTTNGLPAFRCVEYAEQEGAPTTTVCAKKEVVLSAGSVGTPILLQLSGIGDENDLSSVGIDTIVNNPSVGRNLSDHLLLPAAFFVNSNQTFDNIFRDSSEFNVDLDQWTNTRTGPLTALIANHLAWLRLPSNSSIFQTFPDPAAGPNSAHWETIFSNQWFHPAIPRPDTGSFMSVTNALISPVARGDIKLATSNPFDKPLINPQYLSTEFDIFTMIQAVKSNLRFLSGQAWADFVIRPFDPRLRDPTDDAAIESYIRDNANTIFHPVGTASMSPRGASWGVVDPDLKVKGVDGLRIVDGSILPFAPNAHTQGPIYLVGKQGADLIKADQ"}}, "key": {"[1]": {"target": "T1, UPO (unspecific peroxygenase), PaDa-I variant (Cyclocybe aegerita, UniProt B9W4V6, V100A/L110F/V118I/I291V/F354L)", "T1 construct": "gene APO1", "T1 sequence (B9W4V6 44-371 V100A/L110F/V118I/I291V/F354L)": "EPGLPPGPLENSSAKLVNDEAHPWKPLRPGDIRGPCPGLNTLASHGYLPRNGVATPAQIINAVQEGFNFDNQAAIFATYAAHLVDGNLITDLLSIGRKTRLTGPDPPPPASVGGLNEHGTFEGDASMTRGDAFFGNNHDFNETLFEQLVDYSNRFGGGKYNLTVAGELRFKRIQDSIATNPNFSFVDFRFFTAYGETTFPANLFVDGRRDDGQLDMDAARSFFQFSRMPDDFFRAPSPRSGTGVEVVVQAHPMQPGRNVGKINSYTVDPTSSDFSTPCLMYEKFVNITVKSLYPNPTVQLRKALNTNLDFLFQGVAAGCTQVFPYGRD", "assay": "GC-MS product analysis (FFCA formed)", "assay_type": "biochemical", "details": "1.5 mM MMFA, 5 µM UPO, 1.5 mM H2O2; ether cleavage"}, "[2]": {"substrate": "O=Cc1ccc(CO)o1", "assay": "purified protein", "assay_type": "biochemical, Pleurotus eryngii", "details": "O2 co-substrate (air), sodium phosphate pH 7.0 (50 mM in Table 1, 100 mM in Methods), 25 °C"}, "[3]": {"substrate": "COCc1ccc(C=O)o1", "assay": "purified protein", "assay_type": "biochemical, Pleurotus eryngii", "details": "O2 co-substrate (air), sodium phosphate pH 7.0 (50 mM in Table 1, 100 mM in Methods), 25 °C"}, "[4]": {"substrate": "O=Cc1ccc(C=O)o1", "assay": "purified protein", "details": "O2 co-substrate (air), sodium phosphate pH 7.0 (50 mM in Table 1, 100 mM in Methods), 25 °C"}}}
{"molecule": "COCc1ccc(C(=O)O)o1", "note": "[MMFA, 5-(Methoxymethyl)-2-furancarboxylic acid]", "values": [{"measurement": "GC-MS product analysis (FFCA formed)", "setting": "[1]", "result": "UPO is indeed capable to cleave the ether bond of MMFA"}]}
{"molecule": "B1", "values": [{"measurement": "Km", "setting": "[2]", "result": "1.6 ± 0.2", "unit": "mM"}, {"measurement": "kcat", "setting": "[2]", "result": "0.335 ± 0.01", "unit": "s⁻¹"}, {"measurement": "kcat/Km", "setting": "[2]", "result": "215 ± 20", "unit": "M⁻¹ s⁻¹"}, {"measurement": "Km", "setting": "[3]", "result": "60.8 ± 5.5", "unit": "mM"}, {"measurement": "kcat", "setting": "[3]", "result": "0.263 ± 0.01", "unit": "s⁻¹"}, {"measurement": "kcat/Km", "setting": "[3]", "result": "5.83 ± 0.333", "unit": "M⁻¹ s⁻¹"}, {"measurement": "Km", "setting": "[4]", "result": "3.3 ± 0.2", "unit": "mM"}, {"measurement": "kcat", "setting": "[4]", "result": 0.523, "unit": "s⁻¹"}, {"measurement": "kcat/Km", "setting": "[4]", "result": 157, "unit": "M⁻¹ s⁻¹"}]}
